Data reported in article PMC5904255, “High-Mobility Group Box 1-Induced Complement Activation Causes Sterile Inflammation” (Frontiers in Immunology, 2018).

How the values were obtained:
[1] = target: T1, purified normal human C1q (human, UniProt P02745 23-245; P02746 28-253; P02747 29-245); experiment: SPR; C1q immobilised on CM5 dextran sensor chip; HMGB1 proteins passed over at 1.8, 0.9, 0.45, 0.23 and 0.11 µM; BIAcore 2000; details: both partners purified
T1 construct: Complement C1q subcomponent subunit A, human; Complement C1q subcomponent subunit B, human; Complement C1q subcomponent subunit C, human; Used purified (ELISA, SPR) and in 10% normal human serum (microspheres); also called serum C1q; C1q protein; source: bought: Sigma (purified normal human C1q); endogenous, normal human serum; copies: + +
T1 sequence (P02745 23-245, chain 1 of 3): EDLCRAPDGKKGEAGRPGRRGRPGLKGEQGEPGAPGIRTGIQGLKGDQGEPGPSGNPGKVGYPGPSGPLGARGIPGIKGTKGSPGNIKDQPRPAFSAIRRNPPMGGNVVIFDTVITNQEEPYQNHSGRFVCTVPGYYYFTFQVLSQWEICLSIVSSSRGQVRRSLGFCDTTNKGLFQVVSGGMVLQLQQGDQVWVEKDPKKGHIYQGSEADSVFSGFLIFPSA
T1 sequence (P02746 28-253, chain 2 of 3): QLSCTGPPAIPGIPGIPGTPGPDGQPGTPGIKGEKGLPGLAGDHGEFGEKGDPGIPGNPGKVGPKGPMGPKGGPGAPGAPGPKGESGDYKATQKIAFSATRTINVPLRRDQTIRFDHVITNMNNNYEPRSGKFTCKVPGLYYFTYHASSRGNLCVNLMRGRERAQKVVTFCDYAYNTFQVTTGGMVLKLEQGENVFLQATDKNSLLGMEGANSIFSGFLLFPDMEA
T1 sequence (P02747 29-245, chain 3 of 3): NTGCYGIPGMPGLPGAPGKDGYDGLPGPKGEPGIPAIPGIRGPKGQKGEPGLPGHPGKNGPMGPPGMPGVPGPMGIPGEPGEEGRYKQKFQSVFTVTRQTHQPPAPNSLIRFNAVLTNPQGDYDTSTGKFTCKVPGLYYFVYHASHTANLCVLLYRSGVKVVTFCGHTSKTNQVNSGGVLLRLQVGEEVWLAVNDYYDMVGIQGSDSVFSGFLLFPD

[2] = target: T1, purified normal human C1q; experiment: SPR; reciprocal: HMGB1 WT (R&D), A box or B box (10 µg/ml) immobilised on CM5 chip in 10 mM sodium acetate pH 4.0; C1q in HBS-EP (10 mM HEPES, 150 mM NaCl, 3.4 mM EDTA, 0.05% Tween 20, pH 7.4) at 200, 100, 50, 25 and 12.5 nM, 20 µl/min for 3 min; BIAcore 2000; details: both partners purified

Row | Kd [1] | Kd [2] | Binder
1 | ~4 µM | – | HMGB1 box A (aa 1-79) (domain or fragment, human, UniProt P09429 1-79, looked up, HMGB1, human, A box, aa 1-79; Subcloned into pRSET B; also called HMGB1 A box; A box; source: E. coli BL21 (DE3) pLysE, purified) MGKGDPKKPRGKMSSYAFFVQTCREEHKKKHPDASVNFSEFSKKCSERWKTMSAKEKGKFEDMAKADKARYEREMKTYI
2 | ~4 µM | – | HMGB1 box B (aa 88-162) (domain or fragment, human, UniProt P09429 88-162, looked up, HMGB1, human, B box, aa 88-162; Subcloned into pRSET B; also called HMGB1 B box; B box; source: E. coli BL21 (DE3) pLysE, purified) KFKDPNAPKRPPSAFFLFCSEYRPKIKGEHPGLSIGDVAKKLGEMWNNTAADDKQPYEKKAAKLKEKYEKDIAAY
3 | – | ~0.4 µM | HMGB1 produced in NS0 mouse myeloma cell line (Euk-HMGB1, R&D Systems) (natural protein, human, UniProt P09429 1-215, looked up, High-mobility group box 1 (HMGB1), human, produced in mouse myeloma cell line NS0; No catalogue number is printed; also called HMGB1 WT (R&D); source: bought: R&D Systems (produced in NS0 mouse myeloma cell line)) MGKGDPKKPRGKMSSYAFFVQTCREEHKKKHPDASVNFSEFSKKCSERWKTMSAKEKGKFEDMAKADKARYEREMKTYIPPKGETKKKFKDPNAPKRPPSAFFLFCSEYRPKIKGEHPGLSIGDVAKKLGEMWNNTAADDKQPYEKKAAKLKEKYEKDIAAYRAKGKPDAAKKGVVKAEKSKKKKEEEEDEEDEEDEEEEEDEEDEDEEEDDDDE
